The experiment addresses T1, ATP1A1 genetically fused to yellow fluorescent protein (YFP) tag (human, UniProt P05023 1-1023).
T1 construct: Stood in lysates of RSV-infected H1299 ATP1A1-YFP cells and was pulled down with YFP-specific antibodies; The other subunits of the Na+,K+-ATPase complex may have been present; also called ATP1A1-YFP; ATPase Na+/K+ transporting subunit alpha 1; not shown: yellow fluorescent protein (YFP) tag
Briefly: co-immunoprecipitation.

B1: RSV attachment (G) glycoprotein (other)
chain: MSKNKDQRTAKTLERTWDTLNHLLFISSCLYKLNLKSVAQITLSILAMIISTSLIIAAIIFIASANHKVTPTTAIIQDATSQIKNTTPTYLTQNPQLGISPSNPSEITSQITTILASTTPGVKSTLQSTTVKTKNTTTTQTQPSKPTTKQRQNKPPSKPNNDFHFEVFNFVPCSICSNNPTCWAICKRIPNKKPGKKTTTKPTKKPTLKTTKKDPKPQTTKSKEVPTTKPTEEPTINTTKTNIITTLLTSNTTGNPELTSQMETFHSTSSEGNPSPSQVSTTSEYPSQPSSPPNTPRQ
notes: Viral protein in lysates of RSV-infected cells; also called RSV G
Turning to B1, the binding result was “no binding”.

The record behind these values is US20240226118A1 (US Dept. of Health and Human Services, published 2024).
